Experimental data from publication PMC11417362, “Template-independent synthesis and 3′-end labelling of 2′-modified oligonucleotides with terminal deoxynucleotidyl transferases” (Nucleic Acids Research, 2024).

Tests used:
[1] = substrate: Nc1nc2c(ncn2[C@@H]2O[C@H](COP(=O)(O)OP(=O)(O)OP(=O)(O)O)[C@@H](O)[C@@H]2F)c(=O)[nH]1; experiment: steady-state primer extension, denaturing PAGE, Michaelis-Menten fit; assay type: biochemical, Mus musculus; conditions: 100 nM ssDNA primer FAM-18G, 10 mM Mg(OAc)2, 1x TdT buffer (100 mM KCl, 30 mM Tris-acetate, 0.05% Triton X-100), pH 7.5, 37°C
From the text: (§1) steady-state primer extension, denaturing PAGE, Michaelis-Menten fit on murine TdT

[2] = substrate: Nc1ncnc2c1ncn2[C@H]1C[C@H](O)[C@@H](COP(=O)(O)OP(=O)(O)OP(=O)(O)O)O1; experiment: as above; assay type: biochemical, Mus musculus; conditions: 100 nM ssDNA primer FAM-18G, 10 mM Mg(OAc)2, 1x TdT buffer (100 mM KCl, 30 mM Tris-acetate, 0.05% Triton X-100), pH 7.5, 37°C
From the text: as §1

[3] = substrate: Nc1nc2c(ncn2[C@@H]2O[C@H](COP(=O)(O)OP(=O)(O)OP(=O)(O)O)[C@@H](O)[C@H]2F)c(=O)[nH]1; experiment: as above; assay type: biochemical, Mus musculus; conditions: 100 nM ssDNA primer FAM-18G, 10 mM Mg(OAc)2, 1x TdT buffer (100 mM KCl, 30 mM Tris-acetate, 0.05% Triton X-100), pH 7.5, 37°C
From the text: as §1

[4] = substrate: Nc1ccn([C@@H]2O[C@H](COP(=O)(O)OP(=O)(O)OP(=O)(O)O)[C@@H](O)[C@@H]2F)c(=O)n1; experiment: as above; assay type: biochemical, Mus musculus; conditions: 100 nM ssDNA primer FAM-18G, 10 mM Mg(OAc)2, 1x TdT buffer (100 mM KCl, 30 mM Tris-acetate, 0.05% Triton X-100), pH 7.5, 37°C
From the text: as §1

[5] = substrate: O=c1ccn([C@@H]2O[C@H](COP(=O)(O)OP(=O)(O)OP(=O)(O)O)[C@@H](O)[C@H]2F)c(=O)[nH]1; experiment: as above; assay type: biochemical, Mus musculus; conditions: 100 nM ssDNA primer FAM-18G, 10 mM Mg(OAc)2, 1x TdT buffer (100 mM KCl, 30 mM Tris-acetate, 0.05% Triton X-100), pH 7.5, 37°C
From the text: as §1

[6] = substrate: Cc1cn([C@H]2C[C@H](O)[C@@H](COP(=O)(O)OP(=O)(O)OP(=O)(O)O)O2)c(=O)[nH]c1=O; experiment: as above; assay type: biochemical, Mus musculus; conditions: 100 nM ssDNA primer FAM-18G, 10 mM Mg(OAc)2, 1x TdT buffer (100 mM KCl, 30 mM Tris-acetate, 0.05% Triton X-100), pH 7.5, 37°C
From the text: as §1

[7] = substrate: Nc1ccn([C@H]2C[C@H](O)[C@@H](COP(=O)(O)OP(=O)(O)OP(=O)(O)O)O2)c(=O)n1; experiment: as above; assay type: biochemical, Mus musculus; conditions: 100 nM ssDNA primer FAM-18G, 10 mM Mg(OAc)2, 1x TdT buffer (100 mM KCl, 30 mM Tris-acetate, 0.05% Triton X-100), pH 7.5, 37°C
From the text: as §1

[8] = substrate: CO[C@@H]1[C@H](O)[C@@H](COP(=O)(O)OP(=O)(O)OP(=O)(O)O)O[C@H]1n1cnc2c(=O)[nH]c(N)nc21; experiment: as above; assay type: biochemical, Mus musculus; conditions: 100 nM ssDNA primer FAM-18G, 10 mM Mg(OAc)2, 1x TdT buffer (100 mM KCl, 30 mM Tris-acetate, 0.05% Triton X-100), pH 7.5, 37°C
From the text: as §1

[9] = substrate: O=c1ccn([C@@H]2O[C@H](COP(=O)(O)OP(=O)(O)OP(=O)(O)O)[C@@H](O)[C@@H]2F)c(=O)[nH]1; experiment: purified protein, by the assay type
Experimental: (§2) The steady-state kinetic experiments were performed as described previously with minor modifications ([61]). A 2× reaction solution was prepared by mixing 200 nM primer FAM-18G, 0–128 μM 2′-modified NTP and 20 mM Mg(OAc)2 in 2× TdT buffer. A 5 μl aliquot of pre-warmed 2× reaction solution was mixed with 5 μl of bovine TdT, MTdT-evo or murine TdT of varying concentration, and incubated at 37°C for a certain time. The reaction was then quenched by the addition of 10 μl of 2× TBE-urea sample buffer and incubation at 95°C for 10 min. The products were analysed with 20% denaturing PAGE gels containing 8 M urea. All gel bands were quantified using Quantity One analysis software (Bio-Rad). Km and kcat values were calculated by fitting the data to the Michaelis–Menten equation with GraphPad Prism 8 software. To quantify the activities of different TdTs for the incorporation of 2′-modified NTPs, steady-state kinetic experiments were carried out.

[10] = substrate: Nc1ncnc2c1ncn2[C@@H]1O[C@H](COP(=O)(O)OP(=O)(O)OP(=O)(O)O)[C@@H](O)[C@H]1F; experiment: purified protein, by the assay type
Experimental: as §2

[11] = substrate: Nc1ncnc2c1ncn2[C@@H]1O[C@H](COP(=O)(O)OP(=O)(O)OP(=O)(O)O)[C@@H](O)[C@@H]1F; experiment: purified protein, by the assay type
Experimental: as §2

[12] = substrate: CO[C@@H]1[C@H](O)[C@@H](COP(=O)(O)OP(=O)(O)OP(=O)(O)O)O[C@H]1n1ccc(N)nc1=O; experiment: purified protein, by the assay type
Experimental: as §2

B1: murine TdT (Mus musculus) (protein)
chain: MDPLQAVHLGPRKKRPRQLGTPVASTPYDIRFRDLVLFILEKKMGTTRRAFLMELARRKGFRVENELSDSVTHIVAENNSGSDVLEWLQLQNIKASSELELLDISWLIECMGAGKPVEMMGRHQLVVNRNSSPSPVPGSQNVPAPAVKKISQYACQRRTTLNNYNQLFTDALDILAENDELRENEGSCLAFMRASSVLKSLPFPITSMKDTEGIPCLGDKVKSIIEGIIEDGESSEAKAVLNDERYKSFKLFTSVFGVGLKTAEKWFRMGFRTLSKIQSDKSLRFTQMQKAGFLYYEDLVSCVNRPEAEAVSMLVKEAVVTFLPDALVTMTGGFRRGKMTGHDVDFLITSPEATEDEEQQLLHKVTDFWKQQGLLLYCDILESTFEKFKQPSRKVDALDHFQKCFLILKLDHGRVHSEKSGQQEGKGWKAIRVDLVMCPYDRRAFALLGWTGSRQFERDLRRYATHERKMMLDNHALYDRTKRVFLEAESEEEIFAHLGLDYIEPWERNA
notes: recombinant, plasmid pET28a-murine TdT, E. coli BL21(DE3)
Km [1]: 2.75 ± 0.23 µM | kcat [1]: 0.247 ± 0.007 s⁻¹ | kcat/Km [1]: 90000 M⁻¹ s⁻¹ | Km [2]: 2.53 ± 0.30 µM | kcat [2]: 0.0307 ± 0.00118 s⁻¹ | kcat/Km [2]: 12100 M⁻¹ s⁻¹ | Km [3]: 2.59 ± 0.36 µM | kcat [3]: 0.0892 ± 0.0055 s⁻¹ | kcat/Km [3]: 34500 M⁻¹ s⁻¹ | Km [4]: 1.66 ± 0.71 µM | kcat [4]: 0.09 ± 0.00667 s⁻¹ | kcat/Km [4]: 54200 M⁻¹ s⁻¹ | Km [5]: 0.95 ± 0.31 µM | kcat [5]: 0.00617 ± 0.000567 s⁻¹ | kcat/Km [5]: 6480 M⁻¹ s⁻¹ | Km [6]: 1.00 ± 0.33 µM | kcat [6]: 0.0198 ± 0.00183 s⁻¹ | kcat/Km [6]: 19800 M⁻¹ s⁻¹ | Km [7]: 1.37 ± 0.18 µM | kcat [7]: 0.058 ± 0.0055 s⁻¹ | kcat/Km [7]: 42300 M⁻¹ s⁻¹ | Km [8]: 1.97 ± 0.14 µM | kcat [8]: 0.00217 ± 8.67e-05 s⁻¹ | kcat/Km [8]: 1100 M⁻¹ s⁻¹ | Km [9]: 2.36 ± 0.60 µM | kcat [9]: 0.06 ± 0.00433 s⁻¹ | kcat/Km [9]: 25500 M⁻¹ s⁻¹ | Km [10]: 0.62 ± 0.48 µM | kcat [10]: 0.023 ± 0.00108 s⁻¹ | kcat/Km [10]: 37200 M⁻¹ s⁻¹ | Km [11]: 3.98 ± 0.33 µM | kcat [11]: 0.204 ± 0.00283 s⁻¹ | kcat/Km [11]: 51300 M⁻¹ s⁻¹ | Km [12]: 5.1 ± 1.53 µM | kcat [12]: 0.00112 ± 8.67e-05 s⁻¹ | kcat/Km [12]: 219 M⁻¹ s⁻¹
